Patent publication US20250250330A1
Where “and” joins values, the source holds several entries; their conditions need not be identical. Equal entries are not always repeated.

Biological target: Recombinant human VEGF165 (Peprotech, Cat #100-20) (human) (UniProt P15692)
Assay: ELISA; rhVEGF165 coated, anti-human IgG Fc-HRP detection

Sequence of Recombinant human VEGF165 (Peprotech, Cat #100-20) (human) (P15692 other isoform, or with tags, fused parts or gaps limits assumed): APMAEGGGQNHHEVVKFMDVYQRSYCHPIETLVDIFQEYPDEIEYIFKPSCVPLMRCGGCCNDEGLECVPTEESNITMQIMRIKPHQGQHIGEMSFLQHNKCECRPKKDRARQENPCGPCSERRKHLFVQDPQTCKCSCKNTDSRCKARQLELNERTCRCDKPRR
Sequence of Aflibercept (Fc fusion) (chain): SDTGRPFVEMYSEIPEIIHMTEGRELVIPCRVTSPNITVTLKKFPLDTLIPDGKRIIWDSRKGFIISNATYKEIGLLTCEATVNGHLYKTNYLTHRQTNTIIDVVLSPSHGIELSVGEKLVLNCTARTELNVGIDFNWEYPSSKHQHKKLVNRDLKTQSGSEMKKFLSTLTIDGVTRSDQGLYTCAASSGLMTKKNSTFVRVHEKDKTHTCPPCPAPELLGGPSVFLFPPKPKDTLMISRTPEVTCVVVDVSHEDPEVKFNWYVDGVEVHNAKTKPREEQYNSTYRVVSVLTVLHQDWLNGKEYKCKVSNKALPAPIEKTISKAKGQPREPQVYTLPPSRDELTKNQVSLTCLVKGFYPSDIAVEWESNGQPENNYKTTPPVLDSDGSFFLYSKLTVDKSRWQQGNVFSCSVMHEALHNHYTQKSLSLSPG

Aflibercept (Fc fusion) was tested, and the EC50 was 0.0513 nM and 0.074 nM and 0.0403 nM.
